Results as given in paper PMC7527733.

How the values were obtained:
[1] = target: Elizabethkingia anophelis strain AG1 CDC-like protein (CDCL) (Elizabethkingia anophelis strain AG1); test: SDS-agarose gel electrophoresis (SDS-AGE)
[2] = target: Elizabethkingia anophelis strain AG1 short CDC-like protein (CDCL^S) (Elizabethkingia anophelis strain AG1); test: […]) in 20 mM HEPES (pH 7), 150 mM NaCl, […] (55:45) […]

Row | Substance | stoichiometry N [1] | stoichiometry N [2]
1 | Elizabethkingia anophelis strain AG1 CDC-like protein (CDCL) (natural protein) | 2 | 
2 | Elizabethkingia anophelis strain AG1 short CDC-like protein (CDCL^S) (natural protein) |  | 28 monomers
